Source: PMC9817314, “Detection of human annexin A1 as the novel N-terminal tag for separation and purification handle” (Microbial Cell Factories, 2023)

T1: human annexin A1 (hanA1) tagged emerald green fluorescent protein (EmGFP) (human, UniProt P04083 3-346)
T1 construct: human annexin A1, amplified from a human brain cDNA library; EmGFP (reporter, detected by fluorescence) follows after the BamH I / Bgl II junction; also called hanA1-EmGFP; HanA1-EmGFP; source: E. coli BL21(DE3); in crude extract (clear lysate), or separated by CaCl2 precipitation and EDTA-Na2 resolubilisation; not shown: EmGFP, C-terminal, kept
T1 sequence (looked up): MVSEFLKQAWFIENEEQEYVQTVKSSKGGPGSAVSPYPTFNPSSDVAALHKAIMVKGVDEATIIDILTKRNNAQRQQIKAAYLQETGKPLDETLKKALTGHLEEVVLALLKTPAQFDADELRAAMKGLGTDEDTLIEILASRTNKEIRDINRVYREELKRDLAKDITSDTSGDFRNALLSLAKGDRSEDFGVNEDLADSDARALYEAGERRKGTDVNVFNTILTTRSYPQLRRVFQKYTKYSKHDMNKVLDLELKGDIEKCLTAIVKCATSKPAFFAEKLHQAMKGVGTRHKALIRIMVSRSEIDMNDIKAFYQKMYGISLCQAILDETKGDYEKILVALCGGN

B1: MBP-hS100A11 (human S100A11 fused to maltose binding protein) (natural protein, UniProt P31949 2-105, looked up)
chain: AKISSPTETERCIESLIAVFQKYAGKDGYNYTLSKTEFLSFMNTELAAFTKNQKDPGVLDRMMKKLDTNSDGQLDFSEFLNLIGGLAMACHDSFLKAVPSQKRT
notes: human S100A11, amplified from a human cDNA library; also called MBP-S100A11; immobilized S100A11; source: E. coli, soluble; immobilised on amylose resin and washed; not shown: MBP, N-terminal, kept

What was measured:
S100A11 (Homo sapiens) = S100A11 (Homo sapiens) (UniProt P31949); conditions: cited from earlier work
[1] = target: T1, human annexin A1 (hanA1) tagged emerald …; test: pull-down; MBP-hS100A11 immobilised on amylose resin; hanA1-EmGFP in crude extract (clear lysate) in buffer B (20 mM Tris-HCl pH 8.0, 10% glycerol, 1 mM CaCl2), room temperature, 2 h; washed with buffer B containing 50 mM NaCl; eluted with buffer C (buffer A with 5 mM EDTA-Na2); SDS-PAGE; conditions: one partner purified

Molecule | Kd (S100A11 (Homo sapiens)) | binding result [1]
annexin I N-terminal peptide (from UniProt P04083) | 5 µM | 
B1 |  | binds
